# B1: KGC-HDAC5c (C-terminal portion of Kusabira Green protein fused with HDAC5c), wild type [human] / KGN-SRD3c (N-terminal portion of Kusabira Green protein fused with SRD3c) [human] (parent)
# chain 1: LFTTGVVYDTFMLKHQCMCGNTHVHPEHAGRIQSIWSRLQETGLLSKCERIRGRKATLDEIQTVHSEYHTLLYGTSPLNRQKLDSKKLLGPISQKMYAVLPCGGIGVDSDTVWNEMHSSSAVRMAVGCLLELAFKVAAGELKNGFAIIRPPGHHAEESTAMGFCFFNSVAITAKLLQQKLNVGKVLIVDWDIHHGNGTQQAFYNDPSVLYISLHRYDNGNFFPGSGAPEEVGGGPGVGYNVNVAWTGGVDPPIGDVEYLTAFRTVVMPIAHEFSPDVVLVSAGFDAVEGHLSPLGGYSVTARCFGHLTRQLMTLAGGRVVLALEGGHDLTAICDASEACVSALLSVELQPLDEAVLQQKPNINAVATLEKVIEIQSKHWSCVQKFAAGLGRSLREAQAGETEEAETVS
# chain 2: EGGMSVTQCSKEDGRSSSGPPHETAAPKRTYDMMEGRVGRAISSASIEGLMGRAIPPERHSPHHLKEQHHIRGSITQGIPRSYVEAQEDYLRREAKLLKREGTPPPPPPSRDLTEAYKTQALGPLKLKPAHEGLVATVKEAGRSIHEIPREELRHTPELPLAPRPLKEGSITQGTPLKYDTGASTTGSKKHDVRSLIGSPGRTFPPVHPLDVMADARALERACY
# B2: KGC-HDAC4c (C-terminal portion of Kusabira Green protein fused with HDAC4c), wild type [human] / KGN-SRD3c (N-terminal portion of Kusabira Green protein fused with SRD3c) [human] (parent)
# chain 1: PRFTTGLVYDTLMLKHQCTCGSSSSHPEHAGRIQSIWSRLQETGLRGKCECIRGRKATLEELQTVHSEAHTLLYGTNPLNRQKLDSKKLLGSLASVFVRLPCGGVGVDSDTIWNEVHSAGAARLAVGCVVELVFKVATGELKNGFAVVRPPGHHAEESTPMGFCYFNSVAVAAKLLQQRLSVSKILIVDWDVHHGNGTQQAFYSDPSVLYMSLHRYDDGNFFPGSGAPDEVGTGPGVGFNVNMAFTGGLDPPMGDAEYLAAFRTVVMPIASEFAPDVVLVSSGFDAVEGHPTPLGGYNLSARCFGYLTKQLMGLAGGRIVLALEGGHDLTAICDASEACVSALLGNELDPLPEKVLQQRPNANAVRSMEKVMEIHSKYWRCLQRTTSTAGRSLIEAQTCENEEAET
# chain 2: B1 chain 2
# Variants of: B1
# Assay: BiFC assay (fluorescence spectrophotometer)
# Conditions: HEK293 cells, KGN-SRD3c (1 μg) and KGC-HDAC5c mutant (1 μg), 48 hours of transfection, whole cell lysates, parent: 9.3, read off a plot
row,response,Variant
1,4.4 RFU,chain 1 C17W
2,4 RFU,chain 1 H193R
3,4.7 RFU,chain 1 C102Y

# Variants of: B2
# Assay: BiFC assay (fluorescence spectrophotometer)
# Conditions: HEK293 cells, KGN-SRD3c (1 μg) and KGC-HDAC4c mutant (1 μg), 48 hours of transfection, whole cell lysates, parent: 8, read off a plot
row,response,Variant
1,4.3 RFU,chain 1 H193L
2,5 RFU,chain 1 C18Y
3,4.1 RFU,chain 1 C20Y
4,4.5 RFU,chain 1 C102Y
